Work on 1G01 (antibody) yielded a Kd (N9) of under 1 pM, a koff (N9) of under 1e-07 s⁻¹ and a kon (N9) of 106000 M⁻¹ s⁻¹. The Kd (N1) was 868 pM, the koff (N1) was 4.79e-05 s⁻¹ and the kon (N1) was 55100 M⁻¹ s⁻¹.
In the case of FNI3 (antibody), the Kd (N9) is reported as 2.86 pM, the koff (N9) is reported as 9.45e-07 s⁻¹ and the kon (N9) is reported as 330000 M⁻¹ s⁻¹. It also gave a Kd (N1) of under 1 pM, a koff (N1) of under 1e-07 s⁻¹ and a kon (N1) of 39500 M⁻¹ s⁻¹.
For FNI9 (antibody), the Kd (N9) was under 1 pM and the Kd (N1) was 16.4 pM.

Reference: US20240092876A1 (priority 2020, published 2024)
